# Test results from patent publication US6689362.
# Legend:
# CD7 antigen (human) [1] = target: CD7 antigen (human) (UniProt P09564); assay: cell-based or functional assay
# CD7 antigen (human) [2] = target: CD7 antigen (human) (UniProt P09564); assay: indirect immunofluorescence with FITC goat anti-mouse IgG on MOLT-3 cells, 10 µg/mL (50 nM) TXU-PAP
# CD7 antigen (human) [3] = target: CD7 antigen (human) (UniProt P09564); assay: indirect immunofluorescence, flow cytometry on Jurkat cells
# CD7 antigen (human) [4] = target: CD7 antigen (human) (UniProt P09564); assay: indirect immunofluorescence, flow cytometry on MOLT-3 cells
# TXU-7-PAP immunotoxin, sequence (P10297 23-285): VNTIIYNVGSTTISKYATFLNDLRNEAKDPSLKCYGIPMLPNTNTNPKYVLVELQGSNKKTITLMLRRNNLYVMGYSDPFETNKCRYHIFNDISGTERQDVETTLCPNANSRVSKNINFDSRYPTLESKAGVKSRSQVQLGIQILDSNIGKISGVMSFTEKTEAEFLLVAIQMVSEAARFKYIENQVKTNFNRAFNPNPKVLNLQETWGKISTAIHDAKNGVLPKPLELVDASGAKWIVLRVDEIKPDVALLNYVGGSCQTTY
Substance,"log kill of clonogenic MOLT-3 blasts, serial dilution clonogenic assay, at 1 µg/mL (=5 nM) (CD7 antigen (human) [1]) [logs]",percent of cells positive for cell-surface bound immunotoxin (CD7 antigen (human) [2]) [%],percent of cells stained (CD7 antigen (human) [3]) [%],percent of cells stained (CD7 antigen (human) [4]) [%]
TXU-7-PAP immunotoxin (from UniProt P10297 23-285),2.8 to 3.7,98,–,–
monoclonal antibody TXU-7,–,–,96,99
